Measurements published in patent publication US6867193B1, “Amino acid-containing albumin preparation” (Nipro Corporation, priority 1999, dated 2005).

Tested on: hepatic encephalopathy model animal
Assay: hepatic encephalopathy model rat (partial hepatectomy + ammonium acetate): coma period and plasma ammonia (Test Examples 1-3)
Type: in vivo
Conditions: for coma period / concentration of ammonia in the blood: mean ± standard error
Description: A test drug was prepared by dissolving rat serum albumin (RSA, manufactured by Sigma Corp.) in an amino acid solution (components are disclosed in Table 3) to form a 0.1 w/v % or 1.0 w/v % solution, adding 1.0 N hydrochloric acid thereto to adjust the pH to 6.6 to 7.4 according to Preparation Example 3, filling the solution into a 500 ml infusion bottle and heating at 60° C. for 10 hours after sealing the bottle with a rubber plug. In comparison, physiological saline or the amino acid solution (pH 6.6 to 7.4), respectively, was used in the same way.
Rat partial hepatectomy was carried out by performing a laparotomy of a male SD rat (body weight of 200 to 230 g) under etherization, removing a lateral left lobe, a medial left lobe and a medial right lobe (67%) and closing the abdomen (Archs. Pathol., 1985; 12: 186-202).
A hepatic encephalopathy model animal was created by administering 2 M ammonium acetate solution at a rate of 3 ml/kg into the rat abdomen after 48 hours from the partial hepatectomy (“Kiso to Rinsho”, 1987; 21: 2509-2527).
The test drug was injected from the rat tail vein (10 ml/kg) 2 minutes before administering the ammonium solution. Subsequently, the coma period (minutes) was measured, blood was collected from the rat tail vein 30 minutes after administration of the ammonium solution, and the ammonia concentration in the blood plasma was determined by using an ammonia measuring reagent kit (brand name: Determiner NH3, manufactured by Kyowa Medics Corporation).
A test drug was prepared by dissolving human serum albumin (HSA, manufactured by Sigma Corp.) in the amino acid solution (components are disclosed in Table 3) in the same manner as in Preparation Example 3 to form a desired concentration of the solution (0.001, 0.01, 0.1 or 1.0 w/v %). 6 to 14 male SD rats (body weight 200 to 230 g) as test animals were used per one group, and creation of a hepatic encephalopathy model animal and a test method were carried out in the same manner as Test Example 1. The test drug was injected in an amount of 10 ml/kg from the tail vein.
A test drug was prepared by dissolving bovine serum albumin (BSA, manufactured by Sigma Corp.) in the amino acid solution (components bare disclosed in Table 3) in the same manner as in Preparation Example 3 to form a desired concentration of the solution (0.1 w/v % or 1.0 w/v %). Creation of a hepatic encephalopathy model animal and a test method were carried out in the same manner as Test Example 1.

Molecule	coma period (Test Example 3 (BSA)) [min]	concentration of ammonia in the blood (Test Example 3 (BSA)) [µmol/dL]	effect on the hepatic encephalopathy (Test Example 1, text on Table 4)	concentration of ammonia in the blood (Test Example 1, blood plasma 30 min after ammonium solution, test drug 10 ml/kg tail vein) [µmol/dL]	coma period (Test Example 1, male SD rat, test drug 10 ml/kg tail vein 2 min before ammonium acetate) [min]
1.0% BSA: bovine serum albumin (BSA, manufactured by Sigma Corp.), 1.0%, given alone	23 ± 3	119 ± 10			
1.0% RSA: rat serum albumin (RSA, manufactured by Sigma Corp.), 1.0% final concentration, given alone (protein, UniProt P02770 25-608, looked up) Albumin: EAHKSEIAHRFKDLGEQHFKGLVLIAFSQYLQKCPYEEHIKLVQEVTDFAKTCVADENAENCDKSIHTLFGDKLCAIPKLRDNYGELADCCAKQEPERNECFLQHKDDNPNLPPFQRPEAEAMCTSFQENPTSFLGHYLHEVARRHPYFYAPELLYYAEKYNEVLTQCCTESDKAACLTPKLDAVKEKALVAAVRQRMKCSSMQRFGERAFKAWAVARMSQRFPNAEFAEITKLATDVTKINKECCHGDLLECADDRAELAKYMCENQATISSKLQACCDKPVLQKSQCLAEIEHDNIPADLPSIAADFVEDKEVCKNYAEAKDVFLGTFLYEYSRRHPDYSVSLLLRLAKKYEATLEKCCAEGDPPACYGTVLAEFQPLVEEPKNLVKTNCELYEKLGEYGFQNAVLVRYTQKAPQVSTPTLVEAARNLGRVGTKCCTLPEAQRLPCVEDYLSAILNRLCVLHEKTPVSEKVTKCCSGSLVERRPCFSALTVDETYVPKEFKAETFTFHSDICTLPDKEKQIKKQTALAELVKHKPKATEDQLKTVMGDFAQFVDKCCKAADKDNCFATEGPNLVARSKEALA			no effect	129 ± 13	31 ± 5
